Here are results for three molecules from article PMC5639936 (Nature plants, 2017).

Series [1] deals with T1, SHR-SCR complex (SHR 59-531 with SCR 275-653) (Arabidopsis thaliana, UniProt Q9SZF7 59-531; Q9M384 275-653).
T1 sequence (looked up) 1: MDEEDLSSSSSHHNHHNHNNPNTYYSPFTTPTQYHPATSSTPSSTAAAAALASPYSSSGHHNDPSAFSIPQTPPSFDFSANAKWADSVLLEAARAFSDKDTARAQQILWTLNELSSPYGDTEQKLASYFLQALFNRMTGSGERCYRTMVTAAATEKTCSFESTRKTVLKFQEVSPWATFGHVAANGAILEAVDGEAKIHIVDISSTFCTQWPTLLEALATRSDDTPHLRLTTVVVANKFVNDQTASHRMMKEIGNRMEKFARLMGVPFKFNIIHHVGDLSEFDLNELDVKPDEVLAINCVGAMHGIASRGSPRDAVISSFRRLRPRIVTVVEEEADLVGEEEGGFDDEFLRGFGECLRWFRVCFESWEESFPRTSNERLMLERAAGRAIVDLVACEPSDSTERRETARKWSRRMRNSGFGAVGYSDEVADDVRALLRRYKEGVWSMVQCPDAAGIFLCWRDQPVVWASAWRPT
T1 sequence (looked up) 2: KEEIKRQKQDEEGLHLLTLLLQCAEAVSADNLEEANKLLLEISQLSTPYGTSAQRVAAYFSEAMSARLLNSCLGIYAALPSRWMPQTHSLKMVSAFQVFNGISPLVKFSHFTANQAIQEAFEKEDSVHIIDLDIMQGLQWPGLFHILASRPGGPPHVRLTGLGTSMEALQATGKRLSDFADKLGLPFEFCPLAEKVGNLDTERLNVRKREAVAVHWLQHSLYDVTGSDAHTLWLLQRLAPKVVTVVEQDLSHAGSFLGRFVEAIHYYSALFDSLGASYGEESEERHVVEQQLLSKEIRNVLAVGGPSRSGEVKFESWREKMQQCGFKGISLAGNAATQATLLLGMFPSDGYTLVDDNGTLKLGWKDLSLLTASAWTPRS
As to the kind of experiment: ITC.

The series “AUC” deals with the molecule itself. As to the kind of experiment: AUC.

B1: MGP/IDD3 ZF3-ZF4 (residues 143-221) (domain or fragment, Arabidopsis thaliana, UniProt Q9ZWA6 143-221, looked up)
chain: EKKWKCEKCAKRYAVQSDWKAHSKTCGTREYRCDCGTIFSRRDSFITHRAFCDALAEETARLNAASHLKSFAATAGSNL
As for B1, in series [1], binding was put at a Kd of 35.5 ± 11.2 nM, the dH was determined as 2.59 ± 0.02 kcal/mol and the “stoichiometry N” value turned out to be 0.81 ± 0.003.

B2: JKD/IDD10 ZF3-ZF4 (residues 155-224) (domain or fragment, Arabidopsis thaliana, UniProt Q700D2 155-224, looked up)
chain: GEKKWKCEKCSKKYAVQSDWKAHAKTCGTREYKCDCGTLFSRKDSFITHRAFCDALTEEGARMSSLSNNN
On to B2, for which, in series [1], the Kd is 124 ± 81.7 nM, the dH is -1.29 ± 0.03 kcal/mol and the “stoichiometry N” value is 0.6 ± 0.01.

B3: AtSCL3 (natural protein, Arabidopsis, UniProt Q9LPR8 1-482, looked up)
chain: MVAMFQEDNGTSSVASSPLQVFSTMSLNRPTLLASSSPFHCLKDLKPEERGLYLIHLLLTCANHVASGSLQNANAALEQLSHLASPDGDTMQRIAAYFTEALANRILKSWPGLYKALNATQTRTNNVSEEIHVRRLFFEMFPILKVSYLLTNRAILEAMEGEKMVHVIDLDASEPAQWLALLQAFNSRPEGPPHLRITGVHHQKEVLEQMAHRLIEEAEKLDIPFQFNPVVSRLDCLNVEQLRVKTGEALAVSSVLQLHTFLASDDDLMRKNCALRFQNNPSGVDLQRVLMMSHGSAAEARENDMSNNNGYSPSGDSASSLPLPSSGRTDSFLNAIWGLSPKVMVVTEQDSDHNGSTLMERLLESLYTYAALFDCLETKVPRTSQDRIKVEKMLFGEEIKNIISCEGFERRERHEKLEKWSQRIDLAGFGNVPLSYYAMLQARRLLQGCGFDGYRIKEESGCAVICWQDRPLYSVSAWRCRK
As to B3, the “stoichiometry N” value in the series “AUC” is 2.
